The text below walks through data of article PMC11180174 (Nature Communications, 2024).

What all share (experiment): BLI
What all share (details): both partners purified

For experiment [1], the target named is T1, SARS-CoV-2 Delta RBD, His-tagged (SARS-CoV-2 Delta (B.1.617.2), strain).
T1 construct: not shown: 8xHis, C-terminal, kept

The target of experiment [2] is T2, SARS-CoV-2 Omicron BF.7 RBD, His-tagged (SARS-CoV-2 Omicron BF.7, R346T).
T2 construct: not shown: 8xHis, C-terminal, kept

For experiment [3], the target named is T3, SARS-CoV-2 Omicron BA.5 RBD, His-tagged (SARS-CoV-2 Omicron BA.5, strain).
T3 construct: not shown: 8xHis, C-terminal, kept

Experiment [4] addresses T4, SARS-CoV-2 Omicron BA.1 RBD, His-tagged (SARS-CoV-2 Omicron BA.1, strain).
T4 construct: not shown: 8xHis, C-terminal, kept

The target in experiment [5] is T5, SARS-CoV-2 Omicron BF.7 spike RBD-His (SARS-CoV-2 Omicron BF.7, strain).
T5 construct: not shown: His8, C-terminal, kept

Experiment [6] concerns the target T6, SARS-CoV-2 Omicron BA.5 spike RBD-His (SARS-CoV-2 Omicron BA.5, strain).
T6 construct: not shown: His8, C-terminal, kept

The target of experiment [7] is T7, SARS-CoV-2 Omicron BA.1 spike RBD-His (SARS-CoV-2 Omicron BA.1, strain).
T7 construct: not shown: His8, C-terminal, kept

Experiment [8] concerns the target T8, SARS-CoV-2 Delta spike RBD-His (SARS-CoV-2 Delta (B.1.617.2), strain).
T8 construct: not shown: His8, C-terminal, kept

For experiment [9], the target named is T9, SARS-CoV-2 Omicron XBB.1.16 RBD, His-tagged (SARS-CoV-2 Omicron XBB.1.16, R346T | L368I | V445P | T478R | F486P | F490S).
T9 construct: not shown: 8xHis, C-terminal, kept

In experiment [10] the target is T10, SARS-CoV-2 Omicron XBB RBD, His-tagged (SARS-CoV-2 Omicron XBB, R346T | L368I | V445P | F486S | F490S).
T10 construct: not shown: 8xHis, C-terminal, kept

The target in experiment [11] is T11, SARS-CoV-2 Omicron XBB.1.16 spike RBD-His (SARS-CoV-2 Omicron XBB.1.16, R346T | L368I | V445P | F486P | F490S | T478R).
T11 construct: not shown: His8, C-terminal, kept

Experiment [12] addresses T12, SARS-CoV-2 Omicron XBB spike RBD-His (SARS-CoV-2 Omicron XBB, strain).
T12 construct: not shown: His8, C-terminal, kept

B1: LY-CoV1404 (also known as bebtelovimab) (antibody, V domains shown)
VH: QITLKESGPTLVKPTQTLTLTCTFSGFSLSISGVGVGWLRQPPGKALEWLALIYWDDDKRYSPSLKSRLTISKDTSKNQVVLKMTNIDPVDTATYYCAHHSISTIFDHWGQGTLVTVSS
VL: QSALTQPASVSGSPGQSITISCTATSSDVGDYNYVSWYQQHPGKAPKLMIFEVSDRPSGISNRFSGSKSGNTASLTISGLQAEDEADYYCSSYTTSSAVFGGGTKLTVL
notes: control antibody
The Kd is the equilibrium constant for the complex coming apart. The term koff denotes a measure of how fast the partners let go of each other. A lower koff goes with a long-lived complex. For orientation: kon means a measure of how fast the partners come together. High values mean fast association, low ones slow association. For the molecule B1, the Kd in experiment [1], in experiment [2], in experiment [3] and in [4] was less than 0.001 nM throughout. For the same molecule, the koff in [1], in [2], in [3] and in [4] was less than 1e-07 s⁻¹ throughout. Also, the kon turned out to be 244000 M⁻¹ s⁻¹ in experiment [1], 46800 M⁻¹ s⁻¹ in [2], 40500 M⁻¹ s⁻¹ in experiment [3] and 32200 M⁻¹ s⁻¹ in experiment [4].

B2: LY-CoV1404 (bebtelovimab) (antibody, V domains shown)
VH: B1 VH
VL: B1 VL
With B2, the Kd in experiment [5], in [6], in [7] and in experiment [8] was less than 0.001 nM in each case. For the same molecule, the koff in [5], in experiment [6], in experiment [7] and in [8] was less than 1e-07 s⁻¹ throughout. For the same molecule, the association rate constant (kon) came to 46800 M⁻¹ s⁻¹ in [5], 40400 M⁻¹ s⁻¹ in [6], 32200 M⁻¹ s⁻¹ in [7] and 244000 M⁻¹ s⁻¹ in experiment [8].

B3: neutralizing antibody 7F3 (antibody, V domains shown)
VH: EVQLVESGGGLVKPGRSLRLSCTASGFTFGDYAMSWFRQAPGKGLEWVGFIRSKAYGGTTEYAASVKGRFTISRDDSKSIAYLQMNSLKTEDTAVYYCTRDRYARYDILTGLSPAGADYFYYAMDVWGQGTTVTVSS
VL: EIVLTQSPATLSLSPGERATLSCRASQSVSSYLAWYQQKPGQAPRLLIYDASNRATGIPARFSGSGSGTDFTLTISSLEPEDFAVYYCQQRSNWPQYTFGQGTKLEIK
In the case of B3, the dissociation constant Kd in experiment [9] is 28.6 nM; in experiment [1], 20.8 nM; in experiment [10] it was 19.9 nM; in experiment [2], 1280 nM. In addition, the koff in experiment [9] is 0.0048 s⁻¹; in [1], 0.000914 s⁻¹; in experiment [10], 0.00113 s⁻¹; in experiment [2], 0.0412 s⁻¹. For the same molecule, the kon was 168000 M⁻¹ s⁻¹ in [9], 44000 M⁻¹ s⁻¹ in experiment [1], 56600 M⁻¹ s⁻¹ in experiment [10] and 32100 M⁻¹ s⁻¹ in experiment [2].

B4: 7F3 neutralizing antibody (IgG) (antibody, V domains shown)
VH: B3 VH
VL: B3 VL
As to B4, the Kd in experiment [11] worked out at 28.6 nM; in experiment [12], 19.9 nM; in experiment [5] it was 1280 nM; in experiment [8], 20.8 nM. For the same molecule, the koff was 0.0048 s⁻¹ in [11], 0.00112 s⁻¹ in experiment [12], 0.0412 s⁻¹ in experiment [5] and 0.000914 s⁻¹ in experiment [8]. Moreover, the kon in [11] came out at 168000 M⁻¹ s⁻¹; in experiment [12], 56600 M⁻¹ s⁻¹; in experiment [5], 32100 M⁻¹ s⁻¹; in experiment [8], 44000 M⁻¹ s⁻¹.
